# No end group written: not given here.
# T1: P6A-mScarlet-I (Arabidopsis PIF6 residues 14 to 53, APB.A portion, fused to mScarlet-I) (Arabidopsis thaliana, UniProt Q8L5W7 14-53)
# T1 construct: mScarlet-I: GenBank APD76536; source: E. coli LOBSTR, purified (IMAC, SENP2 cleavage, second IMAC, optionally anion exchange); not shown: His6-SUMO, N-terminal, cleaved; mScarlet-I, C-terminal, kept
# T1 chain (looked up): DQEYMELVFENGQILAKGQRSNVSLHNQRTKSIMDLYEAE
# B1: P3A-mScarlet-I (Arabidopsis PIF3 residues 14 to 55, APB.A portion, fused to mScarlet-I) (domain or fragment, Arabidopsis thaliana, UniProt O80536 14-55, looked up)
# chain: LESAQDRNPSPPVDEVVELVWENGQISTQSQSSRSRNIPPPQ-{mScarlet‑I}
# notes: mScarlet-I: GenBank APD76536; source: E. coli LOBSTR, purified (IMAC, SENP2 cleavage, second IMAC, optionally anion exchange); not shown: His6-SUMO, N-terminal, cleaved; mScarlet-I, C-terminal, kept
# B2: PIF6-mScarlet-I (Arabidopsis PIF6 residues 1 to 100 fused to mScarlet-I) (domain or fragment, Arabidopsis thaliana, UniProt Q8L5W7 1-100, looked up)
# chain: MMFLPTDYCCRLSDQEYMELVFENGQILAKGQRSNVSLHNQRTKSIMDLYEAEYNEDFMKSIIHGGGGAITNLGDTQVVPQSHVAAAHETNMLESNKHVD
# notes: mScarlet-I: GenBank APD76536; also called AtPIF6; source: E. coli LOBSTR, purified (IMAC, SENP2 cleavage, second IMAC, optionally anion exchange); not shown: His6-SUMO, N-terminal, cleaved
# B3: PIF3-mScarlet-I (Arabidopsis PIF3 residues 1 to 100 fused to mScarlet-I) (domain or fragment, Arabidopsis thaliana, UniProt O80536 1-100, looked up)
# chain: MPLFELFRLTKAKLESAQDRNPSPPVDEVVELVWENGQISTQSQSSRSRNIPPPQANSSRAREIGNGSKTTMVDEIPMSVPSLMTGLSQDDDFVPWLNHH
# notes: mScarlet-I: GenBank APD76536; also called AtPIF3; source: E. coli LOBSTR, purified (IMAC, SENP2 cleavage, second IMAC, optionally anion exchange); not shown: His6-SUMO, N-terminal, cleaved
# B4: Arabidopsis thaliana phytochrome B, N-terminal fragment encompassing the N-terminal extension (NTE) and the photosensory core module (AtPhyB PCM) (domain or fragment, UniProt P14713 1-651, looked up)
# chain: MVSGVGGSGGGRGGGRGGEEEPSSSHTPNNRRGGEQAQSSGTKSLRPRSNTESMSKAIQQYTVDARLHAVFEQSGESGKSFDYSQSLKTTTYGSSVPEQQITAYLSRIQRGGYIQPFGCMIAVDESSFRIIGYSENAREMLGIMPQSVPTLEKPEILAMGTDVRSLFTSSSSILLERAFVAREITLLNPVWIHSKNTGKPFYAILHRIDVGVVIDLEPARTEDPALSIAGAVQSQKLAVRAISQLQALPGGDIKLLCDTVVESVRDLTGYDRVMVYKFHEDEHGEVVAESKRDDLEPYIGLHYPATDIPQASRFLFKQNRVRMIVDCNATPVLVVQDDRLTQSMCLVGSTLRAPHGCHSQYMANMGSIASLAMAVIINGNEDDGSNVASGRSSMRLWGLVVCHHTSSRCIPFPLRYACEFLMQAFGLQLNMELQLALQMSEKRVLRTQTLLCDMLLRDSPAGIVTQSPSIMDLVKCDGAAFLYHGKYYPLGVAPSEVQIKDVVEWLLANHADSTGLSTDSLGDAGYPGAAALGDAVCGMAVAYITKRDFLFWFRSHTAKEIKWGGAKHHPEDKDDGQRMHPRSSFQAFLEVVKSRSQPWETAEMDAIHSLQLILRDSFKESEAAMNSKVVDGVVQPCRDMAGEQGIDELGA
# modifications: phycocyanobilin chromophore, covalently bound
# notes: Phytochrome B, Arabidopsis thaliana, GenBank CAA35222.1; N-terminal fragment with the NTE and the PCM (nPAS-GAF-PHY), lacking PAS1, PAS2 and the HKRD; source: E. coli LOBSTR, purified (Co2+-NTA IMAC, anion exchange); plasmid also encodes Synechocystis sp. heme oxygenase 1 and PcyA
# What was measured:
# [1] = target: P3A or PIF3; test: FRET or BRET; as a5 (association and dissociation kinetics after a red-light pulse) at several temperatures up to 30 °C; values told for 30 °C or for 30 °C against 15 °C
# [2] = target: B4; test: FRET or BRET; association kinetics at 15 °C after a 0.5-s pulse of red light (658 nm, 69 mW cm^-2, optical shutter); 20 nM PIF-mScarlet-I variant with 500 to 2,000 nM AtPhyB PCM, or 30 nM P6A-mScarlet-I with 750 to 2,500 nM AtPhyB (1-982); 50 mM Tris/HCl pH 8.0, 20 mM NaCl; pseudo-first-order, linear fit of koFR against the AtPhyB concentration; kaFR corrected for the Pfr fraction; Kd calculated from kdFR and kaFR …; settings: both partners purified
# [3] = target: T1, P6A-mScarlet-I (Arabidopsis PIF6 …); test: FRET or BRET; as a5 (association and dissociation kinetics after a red-light pulse) at several temperatures up to 30 °C; values told for 30 °C or for 30 °C against 15 °C; settings: both partners purified
# [4] = target: B2; test: FRET or BRET; dissociation kinetics at 15 °C under continuous far-red light (733 nm, 42 mW cm^-2) after saturating red light; same samples as a5; consecutive model (Pfr to Pr reversion, then dissociation); kaR fixed at 0 (Pr state); settings: both partners purified
# [5] = target: T1, P6A-mScarlet-I (Arabidopsis PIF6 …); test: as above; settings: both partners purified
# [6] = target: B1; test: as above; settings: both partners purified
# [7] = target: B3; test: as above; settings: both partners purified
# [8] = target: T1, P6A-mScarlet-I (Arabidopsis PIF6 …); test: FRET or BRET; equilibrium titration: 20 nM P6A-mScarlet-I with 0 to 2,000 nM AtPhyB PCM at 15 °C after red light (658 nm); 50 mM Tris/HCl pH 8.0, 20 mM NaCl, 100 μg/mL BSA; single-site binding isotherm; settings: both partners purified
# [9] = target: B2; test: FRET or BRET; as a5 (association and dissociation kinetics after a red-light pulse) at several temperatures up to 30 °C; values told for 30 °C or for 30 °C against 15 °C; settings: both partners purified
Kd [2],koff [2],kon [2],"fold change of kdFR, 30 °C against 15 °C [3]",Molecule,other results
,,,,"Arabidopsis thaliana phytochrome B, N-terminal fragment encompassing the N-terminal extension (NTE) and the photosensory core module (AtPhyB PCM) (from UniProt P14713 1-651) (domain or fragment)","fold reduction of the affinity, 30 °C against 15 °C [1]: 1.4 to 2.6 fold"
322 ± 109 nM,0.1 s⁻¹,310000 M⁻¹ s⁻¹,,B1,
133 ± 55 nM,0.07 s⁻¹,520000 M⁻¹ s⁻¹,,B2,
,,,5 fold,"Arabidopsis thaliana phytochrome B residues 1 to 982, AtPhyB (1-982) (domain or fragment, UniProt P14713 1-982, looked up, phycocyanobilin chromophore, covalently bound, the oligomeric state is not measured directly here; also called AtPhyB982; source: E. coli LOBSTR, purified (Co2+-NTA IMAC, anion exchange); plasmid also encodes Synechocystis sp. heme oxygenase 1 and PcyA) MVSGVGGSGGGRGGGRGGEEEPSSSHTPNNRRGGEQAQSSGTKSLRPRSNTESMSKAIQQYTVDARLHAVFEQSGESGKSFDYSQSLKTTTYGSSVPEQQITAYLSRIQRGGYIQPFGCMIAVDESSFRIIGYSENAREMLGIMPQSVPTLEKPEILAMGTDVRSLFTSSSSILLERAFVAREITLLNPVWIHSKNTGKPFYAILHRIDVGVVIDLEPARTEDPALSIAGAVQSQKLAVRAISQLQALPGGDIKLLCDTVVESVRDLTGYDRVMVYKFHEDEHGEVVAESKRDDLEPYIGLHYPATDIPQASRFLFKQNRVRMIVDCNATPVLVVQDDRLTQSMCLVGSTLRAPHGCHSQYMANMGSIASLAMAVIINGNEDDGSNVASGRSSMRLWGLVVCHHTSSRCIPFPLRYACEFLMQAFGLQLNMELQLALQMSEKRVLRTQTLLCDMLLRDSPAGIVTQSPSIMDLVKCDGAAFLYHGKYYPLGVAPSEVQIKDVVEWLLANHADSTGLSTDSLGDAGYPGAAALGDAVCGMAVAYITKRDFLFWFRSHTAKEIKWGGAKHHPEDKDDGQRMHPRSSFQAFLEVVKSRSQPWETAEMDAIHSLQLILRDSFKESEAAMNSKVVDGVVQPCRDMAGEQGIDELGAVAREMVRLIETATVPIFAVDAGGCINGWNAKIAELTGLSVEEAMGKSLVSDLIYKENEATVNKLLSRALRGDEEKNVEVKLKTFSPELQGKAVFVVVNACSSKDYLNNIVGVCFVGQDVTSQKIVMDKFINIQGDYKAIVHSPNPLIPPIFAADENTCCLEWNMAMEKLTGWSRSEVIGKMIVGEVFGSCCMLKGPDALTKFMIVLHNAIGGQDTDKFPFPFFDRNGKFVQALLTANKRVSLEGKVIGAFCFLQIPSPELQQALAVQRRQDTECFTKAKELAYICQVIKNPLSGMRFANSLLEATDLNEDQKQLLETSVSCEKQISRIVGD","fold reduction of the affinity, 30 °C against 15 °C [3]: 3 fold"
308 ± 42 nM,0.13 s⁻¹,430000 M⁻¹ s⁻¹,,B3,
,,,6.5 fold,B4,"kdR (dissociation rate constant of the complex in the Pr state) [4]: 0.26 s⁻¹; kdR (dissociation rate constant of the complex in the Pr state) [5]: 2.5 s⁻¹; kdR (dissociation rate constant of the complex in the Pr state) [6]: 1.9 s⁻¹; kdR (dissociation rate constant of the complex in the Pr state) [7]: 1.6 s⁻¹; KD on the total AtPhyB concentration (not corrected for the Pfr fraction) [8]: 180 ± 110 nM; fold reduction of the affinity, 30 °C against 15 °C [9]: ~5 fold; fold change of kaFR, 30 °C against 15 °C [3]: 1.3 fold"

# Source: publication PMC11638003, “Plant phytochrome interactions decode light and temperature signals” (The Plant Cell, 2024)
